Measured values as given in US20240002547A1 (AEBI, published 2024).
Positions of bridges follow the written chain, without caps; N, C: chain ends. No end group written: not given here.

Target: human eukaryotic elongation factor 2 (eEF2) (human, UniProt P13639 2-858)
Test: peptide screening by the technique of WO 2007/010525

CRRGSRASGAHC (disulfide 1-12 (inferred)) [Tox2]
binding result: binds

CSARWGPTMPWC (disulfide 1-12 (inferred)) [Tox1]
binding result: binds
